From publication PMC10387464 (Signal Transduction and Targeted Therapy, 2023)

Molecular target: Omicron BA.1 spike trimer (SARS-CoV-2 Omicron BA.1 (B.1.1.529), N440K | G446S)
Assay: cryo-EM structure
Conditions: both partners purified

B1: MB.02 Fab (Fab, V domains shown)
VH: EVQLVQSGAEVKKPGESLKISCKGSGFSFTSYWIGWVRQMPGKGLEWMGIIYPGDSDTRYSPSFQGQVTISADKSISTAYLQWSSLKASDTAMYYCARGGYEDVFDIWGQGTMVTVSS
VL: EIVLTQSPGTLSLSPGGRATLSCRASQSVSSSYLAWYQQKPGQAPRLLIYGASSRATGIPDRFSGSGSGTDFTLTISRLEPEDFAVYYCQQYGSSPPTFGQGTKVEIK
stoichiometry N: 3 Fabs per S trimer
